Experiment: yeast display, Sf9 membrane polyspecificity reagent, FACS + sequencing; frameworks hold sequencing errors
Outline: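 Polyreactivity labels are assigned by the sorting gate from which each nanobody was recovered. The gates were low and high (top ~1%), set on anti-HA fluorescence for expression and streptavidin fluorescence for reagent binding. Before sorting, galactose-induced (36–48 hours) yeast display cells were stained for 1 hour at 4 °C with 10% biotinylated, detergent-solubilized Sf9 membrane reagent.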

For “QVQLVESGGGLVQAGGSLRLSCAASGFIFRRYAMGWYRQAPGKERELVAAINYSGTSTYYADSVKGRFTISRDNAKNTVYLQMNSLKPEDTAVYYCNARVGYPPYDYWGQGTQVTVSS”, the “polyreactivity (PSR sort gate)” value was “low polyreactivity”.
For “QVQLVESGGGLVQAGGSLRLSCAASGFIFRRYAMGWYRQAPGKERELVAAITWNGGTTYYADSVKGRFTISRDYAKNTVYLQMNRLKPEDTAVYYCAAASRHTGSYRFYYWGQGTQVTVSS”, the “polyreactivity (PSR sort gate)” value was “high polyreactivity”.
For “QVQLVESGGGLVQAGGSLRLSCAASGFIFRRYAMGWYRQAPGKERELVARISTIGGNTFYADSVKGRFTISRDTAKNTVYLQMNSLKPEDTAVYYCATTGGPSWRKYYSWGQGTQVTVSS”, the “polyreactivity (PSR sort gate)” value was “high polyreactivity”.
For “QVQLVESGGGLVQAGGSLRLSCAASGFIFRRYAMVWYRQAPGKERELVAAISTGGSTYYADSVKGRFTISRDNAKNTVYLQMNSLKPDDTAVFYCNVKRRTYGQYRMYYWGQGTQVTVSS”, the “polyreactivity (PSR sort gate)” value was “low polyreactivity”.
With “QVQLVESGGGLVQAGGSLRLSCAASGFIFRRYTMGWYRQAPGKERELVAAISWTGGSTYYADSVKGRFTISRDNAKNTVYLQINRLKPEDTAVYYCNAVLYTPVYDGFDSWGQGTQVTVSS” the “polyreactivity (PSR sort gate)” value was “high polyreactivity”.
For “QVQLVESGGGLVQAGGSLRLSCAASGFIFRRYVMGWTRQAPGKERELVAAISNGGGRTYYADSVKGRFTISRDNAKNTVYLQMNSLKPEDTAVYYCAAYPRGPLAPDYDYWGQGTQVTVSS”, the “polyreactivity (PSR sort gate)” value was “high polyreactivity”.
For “QVQLVESGGGLVQAGGSLRLSCAASGFIFRSYVMGWYRQSPGKERELVAAISKSGGSTYYADSVKGRFTISRDNAKTTVYLQMNSLKPEDTAVYYCAAGTTRTGYRTRYDYWGQGTQVTVSS”, the “polyreactivity (PSR sort gate)” value was “high polyreactivity”.
With “QVQLVESGGGLVQAGGSLRLSCAASGFIFRVYAMGWYRQAPGKERELVAAITRAGNTYYADSVKGRFTISRDNAMNTVYLQMNSLKPEDTAVYYCNKYHYWASPMNYWGQGTQVTVSS” the “polyreactivity (PSR sort gate)” value was “high polyreactivity”.
For “QVQLVESGGGLVQAGGSLRLSCAASGFIFRWNAMGWYRQAPGKERELVAAITSGGGTNYADSVKGRFTISRDNAKNTVYLQMNSLKPEDTAVYYCNASYRRYSNYYKYGYWGQGTQVTVSS”, the “polyreactivity (PSR sort gate)” value was “high polyreactivity”.
In the case of “QVQLVESGGGLVQAGGSLRLSCAASGFIFRWYAMGWYRQAPGKERELVAAITSGGSTYYADSVKGRFTISRDNAKNTVYLQMNSLKPEDTAVYYCNTYPGSRHWWYDYWGQGTQVTVSS”, the “polyreactivity (PSR sort gate)” value is reported as “high polyreactivity”.
For “QVQLVESGGGLVQAGGSLRLSCAASGFIFRYNAMGWYRQAPGKERELVAAISSSGTTNYADSVKGRFTISRDNAKNTVYLQMNSLKPEDTAVYYCAADRRDRSPYYYWGQGTQVTVSS”, the “polyreactivity (PSR sort gate)” value was “high polyreactivity”.
For “QVQLVESGGGLVQAGGSLRLSCAASGFIFRYNPMGRYRHAPGKEREFVAAIDSGGSTYYADSVKGRFTISRDNAKNTVYLQMNSLKPEDTAVYYCNAVHEASYAGVDYWGQGTQVTVSS”, the “polyreactivity (PSR sort gate)” value was “low polyreactivity”.
For “QVQLVESGGGLVQAGGSLRLSCAASGFIFRYNPMGWYRQAPGKERELVAVITSGGRTYYADSVKGRFTISRDNAKNTVYLQMNSLKPEDTAVYYCNGDSRHRRNYDYWGQGSQVTVSS”, the “polyreactivity (PSR sort gate)” value was “high polyreactivity”.
For “QVQLVESGGGLVQAGGSLRLSCAASGFIFRYNTMGWYRQAPGKQRELVATITSGGSTYYADSVKGRFTISRDNAKNTFYLQMNSLKPEDTAVYYFAKVRDVLWRFNYWGQGTQVTVSS”, the “polyreactivity (PSR sort gate)” value was “high polyreactivity”.
For “QVQLVESGGGLVQAGGSLRLSCAASGFIFRYYAMGGYRQAPGKERELVAAISWSGVSTNYADSVKGRFTISRDNAKNTVYLQMNSLTPVDTAVYSCAADGTVRSLGRYYHWGQGTQVTVSS”, the “polyreactivity (PSR sort gate)” value was “low polyreactivity”.
For “QVQLVESGGGLVQAGGSLRLSCAASGFIFRYYAMGWSRQAPGKERELVAAISTGGSTHYADSVKGRFTISRDNAKNTVYLQMNSLKPEDTAVYYCAAPRYFRVRYGYWGQGTQVTVSS”, the “polyreactivity (PSR sort gate)” value was “high polyreactivity”.
In the case of “QVQLVESGGGLVQAGGSLRLSCAASGFIFRYYAMGWYRQAPGKEREFVAAISSSGGSTYYADSVKGRFTISRDNAKNTVYLQMNSLKPEDTAVYYCAARSRQDNFYRSYNSWGQGTQVTVSS”, the “polyreactivity (PSR sort gate)” value is reported as “high polyreactivity”.
In the case of “QVQLVESGGGLVQAGGSLRLSCAASGFIFRYYAMGWYRQAPGKERELFAAISWSGGTTYYADSVKGRFTISRDNAKNTVYLQMNSLKPEDTAVYYCNAGYNGKRRDPVDYWGQGTQVTVSS”, the “polyreactivity (PSR sort gate)” value is reported as “low polyreactivity”.
With “QVQLVESGGGLVQAGGSLRLSCAASGFIFRYYAMGWYRQAPGKERELVAAISGSGGGTYYADSVKGRFTISRDNAKNTVYLQMNSLIPEDTAVYYCAATWTQPQPGYYPYYYWGQGTQVTVSS” the “polyreactivity (PSR sort gate)” value was “high polyreactivity”.
For “QVQLVESGGGLVQAGGSLRLSCAASGFIFRYYAMGWYRQAPGKERELVAAISGSGGGTYYADSVKGRFTISRDNAKNTVYLQMNSLKPEDTAVYYCAAGSTSGYFRYYYWGQGTQVTVSS”, the “polyreactivity (PSR sort gate)” value was “high polyreactivity”.
In the case of “QVQLVESGGGLVQAGGSLRLSCAASGFIFRYYAMGWYRQAPGKERELVAAISKRGGGTYYADSVKGRFTISRDNAKNTVYLQMNSLKPEDTAVYYCNKDGGYGTGSSREYDSWGQGTQVTVSS”, the “polyreactivity (PSR sort gate)” value is reported as “high polyreactivity”.
For “QVQLVESGGGLVQAGGSLRLSCAASGFIFRYYAMGWYRQAPGKERELVAAISRSGGSTYYADSVKGRFTISRDNAKNTVYLQMNSLKPEDTAVYYCAALQSRSWYQFNYWGQGTQVTVSS”, the “polyreactivity (PSR sort gate)” value was “high polyreactivity”.
For “QVQLVESGGGLVQAGGSLRLSCAASGFIFRYYAMGWYRQAPGKERELVAGITRTGGRTYYADSVKGRFTISRDNAKNTVYLQMNSLKPEDTAVYYCAADQYSRWRTKEAFSEYGFDYWGQGTQVTVSS”, the “polyreactivity (PSR sort gate)” value was “high polyreactivity”.
For “QVQLVESGGGLVQAGGSLRLSCAASGFIFRYYAMGWYRQAPGKERELVASISYSGGTTYYADSVKGRFTISRDNAKNTVYLQMNSLKPEDTAVYYCNVYSRTHYQTYTDDYWGQGTQVTVSS”, the “polyreactivity (PSR sort gate)” value was “high polyreactivity”.
With “QVQLVESGGGLVQAGGSLRLSCAASGFIFRYYAMGWYTQAPGKERELVAAISYSGGSTYYADSVKGRFTITRDNAKNTVYLQMNSLKPEDTAVYYCAAVTVKSNQYLYYVYPYGMGYWGQGTQVTVSS” the “polyreactivity (PSR sort gate)” value was “high polyreactivity”.
With “QVQLVESGGGLVQAGGSLRLSCAASGFIFRYYTMGWYRQAPGKERELVASISRRGGSTYYADSVKGRFTISRDNAKNIVYVQMNSLKEVDTAVYYCNADRRLGDGYWGQGTQVTVSS” the “polyreactivity (PSR sort gate)” value was “high polyreactivity”.
With “QVQLVESGGGLVQAGGSLRLSCAASGFIFRYYTMGWYRQAPGKERELVATITSGGSTYYADSVKGRFTISRDNAKNTVYLQMNSLKPEDTAVYYCAKVRDVLWRFNYWGQGTQVTVSS” the “polyreactivity (PSR sort gate)” value was “high polyreactivity”.
With “QVQLVESGGGLVQAGGSLRLSCAASGFIFRYYTMGWYRQAPGKERELVAVITSGGTTYYADSVKGRFTISRDNAKNTVYLQMNSLKPEDTAGAADQWTIHRWATYGYWGQGTQVTVSS” the “polyreactivity (PSR sort gate)” value was “low polyreactivity”.
For “QVQLVESGGGLVQAGGSLRLSCAASGFIFRYYTMGWYRQAPGKERELVAVITSGGTTYYADSVKGRFTISRDNAKNTVYLQMNSLKPEDTAVYYCAADTFYIYEDVLYVQGDYYWGQGTQVTVSS”, the “polyreactivity (PSR sort gate)” value was “low polyreactivity”.
With “QVQLVESGGGLVQAGGSLRLSCAASGFIFSFYAMGWYRQAPGKERELVAAITSSGATTYYADSVKGRFTISRDNAKNTVYLQMNSLKPEDTAVYYCNAVYRRDTGYYRYYYWGQGTQVTVSS” the “polyreactivity (PSR sort gate)” value was “high polyreactivity”.
For “QVQLVESGGGLVQAGGSLRLSCAASGFIFSGNAMGWYRQAPGKARELVAAISWSGTSTFYADSVKGRFTISRDNAKNTVYLQMHSLIPEDTAVYYCAAETYYSYWYRPHYDYWGQGTQVTVSS”, the “polyreactivity (PSR sort gate)” value was “low polyreactivity”.
In the case of “QVQLVESGGGLVQAGGSLRLSCAASGFIFSGNAMGWYRQAPGKERELVAAITWSDGSTYYADSVKGRFTISRDNAKNTVYFQINSLKPEDSAVYYCAVGALQITRYDSWGQGTQVTVSS”, the “polyreactivity (PSR sort gate)” value is reported as “low polyreactivity”.

From the nanobody polyreactivity screen of Harvey et al. (2022)
